Target: T1, mtSSB (mitochondrial single-stranded DNA-binding protein) (human, UniProt Q04837 17-148)
T1 sequence: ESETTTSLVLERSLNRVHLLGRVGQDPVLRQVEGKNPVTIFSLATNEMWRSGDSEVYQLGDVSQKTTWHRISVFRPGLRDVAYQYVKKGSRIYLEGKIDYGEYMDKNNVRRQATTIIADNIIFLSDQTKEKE
Assay: EMSA; 25 fmol DNA in 15 ul; no free template at tetramer:DNA 1:1 or higher; 10 mM Mg2+, 2 mM ATP; 20 mM Tris-HCl pH 8.0, 10 mM MgCl2, 100 ug/ml BSA, 1 mM DTT, 2 mM ATP, 10% glycerol, 15 min at room temperature; 10% native PAGE in 1x TBE
Conditions: protein: recombinant; chain copies: 4; label: 5'-32P; single strand, unstructured

AACACCAGCAGAACTTTTTTAACAAGCAACACACAGAAGACA (ssDNA) [6-dT (no predicted secondary structure; no stem)]: binds.

Reference: article PMC4256270, “In Vivo Occupancy of Mitochondrial Single-Stranded DNA Binding Protein Supports the Strand Displacement Mode of DNA Replication”
